Tests used:
[1] = biological target: HIV-1 Env of isolate 92BR020 (subtype B pseudovirus) (HIV-1); assay: cell-based or functional assay
[2] = biological target: HIV-1 Env of isolate 92UG001 (pseudovirus) (HIV-1); assay: cell-based or functional assay
[3] = biological target: HIV-1 Env of isolate 92UG005 (pseudovirus) (HIV-1); assay: cell-based or functional assay
[4] = biological target: HIV-1 Env of isolate 93MW959 (HIV-1); assay: cell-based or functional assay
[5] = biological target: HIV-1 Env of isolate MGRM-AG-001 (HIV-1); assay: cell-based or functional assay
[6] = biological target: HIV-1 Env of isolate MGRM-AG-003 (HIV-1); assay: cell-based or functional assay
[7] = biological target: HIV-1 Env of isolate MGRM-AG-005 (HIV-1); assay: cell-based or functional assay
[8] = biological target: HIV-1 Env of isolate MGRM-AG-006 (HIV-1); assay: cell-based or functional assay
[9] = biological target: HIV-1 Env of isolate MGRM-AG-008 (HIV-1); assay: cell-based or functional assay
[10] = biological target: HIV-1 Env of isolate MGRM-AG-013 (HIV-1); assay: cell-based or functional assay
[11] = biological target: HIV-1 Env of isolate MGRM-Chronic-B-010 (subtype B pseudovirus) (HIV-1); assay: cell-based or functional assay
[12] = biological target: JR-FL gp120 ΔV1/ΔV2 (HIV-1); assay: ELISA, antigen-coated wells
[13] = biological target: HIV-1 92TH021 envelope glycoprotein (Env) on pseudovirus (HIV-1); assay: cell-based or functional assay
[14] = biological target: HIV-1 Env of isolate 92UG031 (subtype A) (HIV-1); assay: cell-based or functional assay
[15] = biological target: HIV-1 Env of isolate 92UG037 (subtype A) (HIV-1); assay: cell-based or functional assay
[16] = biological target: HIV-1 Env of isolate 92WR009 (subtype A) (HIV-1); assay: cell-based or functional assay
[17] = biological target: HIV-1 Env of isolate 92WR020 (subtype A) (HIV-1); assay: cell-based or functional assay
[18] = biological target: HIV-1 Env of isolate 92WR021 (subtype A) (HIV-1); assay: cell-based or functional assay
[19] = biological target: HIV-1 Env of isolate 92WR024 (subtype A) (HIV-1); assay: cell-based or functional assay
[20] = biological target: HIV-1 Env of isolate 92WR026 (subtype A) (HIV-1); assay: cell-based or functional assay
[21] = biological target: HIV-1 Env of isolate 93UG077 (subtype A) (HIV-1); assay: cell-based or functional assay
[22] = biological target: HIV-1 Env of isolate 93WR029 (subtype A) (HIV-1); assay: cell-based or functional assay
[23] = biological target: HIV-1 Env of isolate 94 KE 105 (subtype AC) (HIV-1); assay: cell-based or functional assay
[24] = biological target: HIV-1 Env of isolate MGRM-AE-006 (subtype AE) (HIV-1); assay: cell-based or functional assay
[25] = biological target: HIV-1 envelope glycoprotein (Env) of isolate 6535.3 (HIV-1); assay: cell-based or functional assay
[26] = biological target: HIV-1 envelope glycoprotein (Env) of isolate 92BR020 (HIV-1); assay: cell-based or functional assay
[27] = biological target: HIV-1 envelope glycoprotein (Env) of isolate 93TH305 (HIV-1); assay: cell-based or functional assay
[28] = biological target: HIV-1 envelope glycoprotein (Env) of isolate APV_13 (HIV-1); assay: cell-based or functional assay
[29] = biological target: HIV-1 envelope glycoprotein (Env) of isolate APV_17 (HIV-1); assay: cell-based or functional assay
[30] = biological target: HIV-1 envelope glycoprotein (Env) of isolate APV_6 (HIV-1); assay: cell-based or functional assay
[31] = biological target: HIV-1 envelope glycoprotein (Env) of isolate JR-FL (HIV-1); assay: cell-based or functional assay
[32] = biological target: HIV-1 envelope glycoprotein (Env) of isolate MGRM-Chronic-B-003 (HIV-1); assay: cell-based or functional assay
[33] = biological target: HIV-1 envelope glycoprotein (Env) of isolate MGRM-Chronic-B-008 (HIV-1); assay: cell-based or functional assay

Sequence of 4995_E20 (PGT-142) (antibody) (VH): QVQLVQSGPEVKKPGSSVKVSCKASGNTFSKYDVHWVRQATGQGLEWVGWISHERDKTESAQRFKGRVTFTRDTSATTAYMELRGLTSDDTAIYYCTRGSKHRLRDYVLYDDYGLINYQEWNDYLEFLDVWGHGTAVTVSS
Sequence of 4995_E20 (PGT-142) (antibody) (VL): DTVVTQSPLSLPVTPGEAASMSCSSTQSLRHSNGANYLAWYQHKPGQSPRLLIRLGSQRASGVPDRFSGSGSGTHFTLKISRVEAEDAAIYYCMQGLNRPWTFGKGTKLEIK
Sequence of 4993_K13 (PGT-141) (antibody) (VH): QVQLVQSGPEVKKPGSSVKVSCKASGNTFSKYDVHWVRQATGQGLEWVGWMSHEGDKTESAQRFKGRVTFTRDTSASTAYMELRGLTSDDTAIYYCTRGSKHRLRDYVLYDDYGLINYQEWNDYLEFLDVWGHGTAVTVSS
Sequence of 4993_K13 (PGT-141) (antibody) (VL): as the sequence (VL) above

Row | Substance | IC50 (µg/mL), pseudovirus neutralization [1] | IC50, pseudovirus neutralization [2] | IC50, pseudovirus neutralization [3] | neutralization IC50 [4] | IC50 [5] | IC50 [6] | IC50 [7] | IC50 [8] | IC50 [9] | IC50 [10] | IC50 (µg/mL), pseudovirus neutralization [11] | EC50 [12] | also measured
1 | 5145_B14 (PGT-127) (antibody) | 0.059 µg/mL | > 50 µg/mL | 1.11 µg/mL | 6.95 µg/mL | > 50 µg/mL | > 50 µg/mL | > 50 µg/mL | 0.021 µg/mL | > 50 µg/mL | 0.018 µg/mL | 0.019 µg/mL | 0.7 µg/mL | –
2 | 4877_D15 (PGT-122) (antibody) | 0.021 µg/mL | > 50 µg/mL | > 50 µg/mL | 0.016 µg/mL | 14.5 µg/mL | 43.7 µg/mL | 33.9 µg/mL | 0.028 µg/mL | > 50 µg/mL | 0.521 µg/mL | 0.018 µg/mL | 0.3 µg/mL | –
3 | 4858_P08 (PGT-123) (antibody) | 0.008 µg/mL | > 50 µg/mL | 9.79 µg/mL | 0.011 µg/mL | 2.51 µg/mL | > 50 µg/mL | 0.149 µg/mL | 0.014 µg/mL | 19.2 µg/mL | 3.37 µg/mL | 0.009 µg/mL | 0.3 µg/mL | neutralization IC50 [13]: > 10 µg/mL; neutralization IC80 [13]: > 10 µg/mL; neutralization IC90 [13]: > 10 µg/mL; neutralization IC95 [13]: > 10 µg/mL
4 | 4995_E20 (PGT-142) (antibody) | – | – | – | – | – | – | – | – | – | – | – | – | IC50 (µg/mL), pseudovirus neutralization [14]: 0.05 µg/mL; IC50 (µg/mL), pseudovirus neutralization [15]: 0.557 µg/mL; IC50 (µg/mL), pseudovirus neutralization [16]: 0.006 µg/mL; IC50 (µg/mL), pseudovirus neutralization [17]: 31.5 µg/mL; IC50 (µg/mL), pseudovirus neutralization [18]: > 50 µg/mL; IC50 (µg/mL), pseudovirus neutralization [19]: 0.069 µg/mL; IC50 (µg/mL), pseudovirus neutralization [20]: 1.78 µg/mL; IC50 (µg/mL), pseudovirus neutralization [21]: > 50 µg/mL; IC50 (µg/mL), pseudovirus neutralization [22]: 0.014 µg/mL; IC50 (µg/mL), pseudovirus neutralization [23]: 0.19 µg/mL; IC50 (µg/mL), pseudovirus neutralization [24]: > 50 µg/mL; IC50 (µg/mL), pseudovirus neutralization [25]: > 50 µg/mL; IC50 (µg/mL), pseudovirus neutralization [26]: 15.1 µg/mL; IC50 (µg/mL), pseudovirus neutralization [27]: 5.86 µg/mL; IC50 (µg/mL), pseudovirus neutralization [28]: > 50 µg/mL; IC50 (µg/mL), pseudovirus neutralization [29]: 0.628 µg/mL; IC50 (µg/mL), pseudovirus neutralization [30]: 4.72 µg/mL; IC50 (µg/mL), pseudovirus neutralization [31]: > 50 µg/mL; IC50 (µg/mL), pseudovirus neutralization [32]: 0.484 µg/mL; IC50 (µg/mL), pseudovirus neutralization [33]: > 50 µg/mL
5 | 5141_B17 (PGT-126) (antibody) | 0.015 µg/mL | > 50 µg/mL | 0.037 µg/mL | 9.44 µg/mL | > 50 µg/mL | > 50 µg/mL | 1.21 µg/mL | 0.01 µg/mL | > 50 µg/mL | 0.008 µg/mL | 0.005 µg/mL | 0.3 µg/mL | IC50, pseudovirus neutralization [13]: 0.115 µg/mL; IC80 (pseudovirus neutralization) [13]: 1.62 µg/mL; IC90 (pseudovirus neutralization) [13]: 6.91 µg/mL; IC95 (pseudovirus neutralization) [13]: > 10 µg/mL
6 | 5123_A06 (PGT-125) (antibody) | 0.016 µg/mL | > 50 µg/mL | > 50 µg/mL | 37.5 µg/mL | > 50 µg/mL | > 50 µg/mL | > 50 µg/mL | 0.008 µg/mL | > 50 µg/mL | 0.004 µg/mL | 0.006 µg/mL | 0.6 µg/mL | –
7 | 4993_K13 (PGT-141) (antibody) | – | – | – | – | – | – | – | – | – | – | – | – | IC50 (µg/mL), pseudovirus neutralization [14]: 0.093 µg/mL; IC50 (µg/mL), pseudovirus neutralization [15]: 1.28 µg/mL; IC50 (µg/mL), pseudovirus neutralization [16]: 0.022 µg/mL; IC50 (µg/mL), pseudovirus neutralization [17]: > 50 µg/mL; IC50 (µg/mL), pseudovirus neutralization [18]: > 50 µg/mL; IC50 (µg/mL), pseudovirus neutralization [19]: 0.175 µg/mL; IC50 (µg/mL), pseudovirus neutralization [20]: 1.78 µg/mL; IC50 (µg/mL), pseudovirus neutralization [21]: > 50 µg/mL; IC50 (µg/mL), pseudovirus neutralization [22]: 0.019 µg/mL; IC50 (µg/mL), pseudovirus neutralization [23]: 0.204 µg/mL; IC50 (µg/mL), pseudovirus neutralization [24]: > 50 µg/mL; IC50 (µg/mL), pseudovirus neutralization [25]: > 50 µg/mL; IC50 (µg/mL), pseudovirus neutralization [26]: 20.3 µg/mL; IC50 (µg/mL), pseudovirus neutralization [27]: > 50 µg/mL; IC50 (µg/mL), pseudovirus neutralization [28]: > 50 µg/mL; IC50 (µg/mL), pseudovirus neutralization [29]: 0.59 µg/mL; IC50 (µg/mL), pseudovirus neutralization [30]: 14.2 µg/mL; IC50 (µg/mL), pseudovirus neutralization [31]: > 50 µg/mL; IC50 (µg/mL), pseudovirus neutralization [32]: 0.4 µg/mL; IC50 (µg/mL), pseudovirus neutralization [33]: > 50 µg/mL
